Paper PMC9600919

Target: N-terminally 3× FLAG-tagged IglD from Francisella novicida (Francisella novicida) (UniProt Q7X3J2)
Experiment: cryo-EM structure

Substance: N-terminally 3× FLAG-tagged IglD from Francisella novicida (from UniProt Q7X3J2 1-398) (natural protein)
- stoichiometry N: 3
